The target of this test is full-length monkey CD137 on the cell surface (cynomolgus monkey). Kind of test: flow cytometry, PMA + ionomycin activated cynomolgus T cells, antibody at 100 nM (Example 4d), Alexa Fluor 647 anti-human Fc; SSC-H against antibody binding. On the technique in general: Flow cytometry measures light scatter and fluorescence of single cells or particles in a stream.
Chain of full-length monkey CD137 on the cell surface (cynomolgus monkey) (Q07011 other isoform, or with tags, fused parts or gaps): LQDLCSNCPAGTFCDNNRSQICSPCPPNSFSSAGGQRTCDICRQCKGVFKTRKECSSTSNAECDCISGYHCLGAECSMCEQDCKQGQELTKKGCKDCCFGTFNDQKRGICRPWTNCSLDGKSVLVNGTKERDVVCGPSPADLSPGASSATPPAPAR

With human IgG4 isotype control antibody, the percent of cells in the lower right (antibody-positive) quadrant stood at 1.5%.

Values taken from patent US20200369776A1.
